Measurements reported in patent US20240247301A1, “DIAGNOSTIC ASSAY FOR CLASSIC INBORN GALACTOSEMIA” (Ohio State Innovation Foundation, priority 2022, published 2024).

What was measured:
[1] = Duarte GalT variant; cited from earlier work
[2] = Duarte GalT-YidA coupled assay (malachite green); type: biochemical; conditions: recombinant Duarte GalT, substrate Gal-1-P
Experimental: The assay contained 25 mM 4-(2-hydroxyethyl)-1-piperazineethanesulfonic acid (HEPES) (pH 8.0), 3 mM MgCl2, 2 mM DTT, 1 mM UDP-glucose (Sigma-Aldrich), 3 mM YidA, and varying amounts of His6-tagged Duarte GalT: 0.25 mM GalT for ≤0.1-mM Gal-1P, and 0.1 mM GalT for ≥0.1-mM Gal-1P (Table 3). […] These 2-μL aliquots were added to a 384-well plate which were pre-dispensed to test wells 18 μL of water and 5 μL of malachite green reagent. […] These specific time courses (using four time points; Table 3) and the appropriate dilutions were performed to maintain product formation in the linear range. To determine the Km and kcat values, the initial velocity calculated at each substrate concentration was subject to the Michaelis-Menten curve-fitting option in Kaleidagraph (Synergy Software).

[3] = earlier qualitative observation (Kuznetsova et al. 2006); cited from earlier work
[4] = YidA substrate-specificity test, initial velocity for Glc-1-P versus Gal-1-P; type: biochemical, Salmonella; conditions: 3 mM Glc-1-P or 3 mM Gal-1-P, 3 mM MgCl2
From the text: FIGS. 1A-B show substrate-recognition bias of YidA for Glc-1-P over Gal-1P. […] The data represent mean±standard error determined from two independent trials. […] The Km and kcat values listed represent the mean±standard error from two independent trials.
Nearly homogeneous recombinant Salmonella YidA by overexpressing it in E. coli SixPack cells were obtained (Lipinszki et al. 2018) (FIG. 3A). N-terminal fusions with a small ubiquitin-like modifier (SUMO) domain were engineered to enhance solubility (Marblestone et al. 2006) and a His6 tag to facilitate affinity purification (FIG. 3A). To measure the phosphatase activity of YidA, malachite green, a cationic dye that forms with free orthophosphate and molybdate a green-colored complex (Abs620) was used; this assay can measure nanomolar concentrations of orthophosphate (FIG. 4). Since YidA is a Mg^2+-dependent phosphatase, its activity with Glc-1-P in the presence of 0-5 mM MgCl2 was first tested and determined that 3 mM MgCl2 was optimal (FIG. 5).

[5] = YihX kinetic studies (malachite green phosphate assay); type: biochemical, Salmonella; conditions: Glc 1-P versus 6-P-F-Asp
From the text: Top panel reproduced from Monroy, et al., 2013.
The Km and kcat values are listed here with their respective curve-fit errors (see summary in Table 4).
Salmonella YihX was purified after overexpression in E. coli BL21 (DE3) pLysS cells. His6-YihX was purified under denaturing conditions using immobilized metal-affinity chromatography. Following purification, YihX was refolded by stepdown dialysis to remove the denaturant. […] YihX offers the basis for a simpler and more sensitive assay to diagnose classic galactosemia.

B1: Duarte GalT: recombinant His6-tagged Duarte variant of galactose-1-phosphate uridylyl transferase, clone from Addgene (GALTA-c001) (protein, UniProt P07902 1-379, looked up, variant N314D)
Galactose-1-phosphate …: MSRSGTDPQQRQQASEADAAAATFRANDHQHIRYNPLQDEWVLVSAHRMKRPWQGQVEPQLLKTVPRHDPLNPLCPGAIRANGEVNPQYDSTFLFDNDFPALQPDAPSPGPSDHPLFQAKSARGVCKVMCFHPWSDVTLPLMSVPEIRAVVDAWASVTEELGAQYPWVQIFENKGAMMGCSNPHPHCQVWASSFLPDIAQREERSQQAYKSQHGEPLLMEYSRQELLRKERLVLTSEHWLVLVPFWATWPYQTLLLPRRHVRRLPELTPAERDDLASIMKKLLTKYDNLFETSFPYSMGWHGAPTGSEAGANWDHWQLHAHYYPPLLRSATVRKFMVGYEMLAQAQRDLTPEQAAERLRALPEVHYHLGQKDRETATIA
activity relative to wild-type GalT [1]: ~25%
increase in kcat/Km, YidA-based assay versus PGM-G6PDH coupled assay [2]: ~2.5 fold

B2: E. coli YidA: E. coli YidA phosphatase documented in a previous study (Kuznetsova et al. 2006) (protein, UniProt P0A8Y5 1-270, looked up)
Sugar phosphatase YidA: MAIKLIAIDMDGTLLLPDHTISPAVKNAIAAARARGVNVVLTTGRPYAGVHNYLKELHMEQPGDYCITYNGALVQKAADGSTVAQTALSYDDYRFLEKLSREVGSHFHALDRTTLYTANRDISYYTVHESFVATIPLVFCEAEKMDPNTQFLKVMMIDEPAILDQAIARIPQEVKEKYTVLKSAPYFLEILDKRVNKGTGVKSLADVLGIKPEEIMAIGDQENDIAMIEYAGVGVAMDNAIPSVKEVANFVTKSNLEDGVAFAIEKYVLN
dephosphorylation of Gal-1-P compared to Glc-1-P (qualitative) [3]: negligible dephosphorylation of Gal-1-P compared to Glc-1-P

B3: YidA: recombinant Salmonella sugar-phosphate phosphatase of the HAD superfamily, overexpressed in E. coli SixPack cells; SUMO tag removed unless stated (protein, listed as Salmonella typhimurium)
chain: MAIKLIAIDMDGTLLLPDHTISPAVKNAIAAAREKGVNVVLTTGRPYAGVHSYLKELHMEQPGDYCITYNGALVQKAGDGSTVAQTALSYDDYRYLEKLSREVGSHFHALDRNTLYTANRDISYYTVHESYVATIPLVFCEAEKMDPNTQFLKVMMIDEPAVLDRAIARIPAEVKEKYTVLKSAPYFLEILDKRVNKGTGVKSLVEALGIKPEEVMAIGDQENDIAMIEYAGMGVAMDNAIPSVKEVANFVTKSNLEDGVAWAIEKFVLNPDHSSGHFPAR
modifications: Description of sequence: YidA
notes: recombinant Salmonella sugar-phosphate phosphatase of the HAD superfamily, overexpressed in E. coli SixPack cells; SUMO tag removed unless stated
preference for Glc-1-P over Gal-1-P (initial velocity) [4]: ≥ 40 fold

B4: YihX: recombinant Salmonella HAD-like sugar-phosphate phosphatase, overexpressed in E. coli BL21 (DE3) pLysS cells and refolded (protein, listed as Salmonella typhimurium)
chain: MLYIFDLGNVIVDIDFNRVLGVWSDLSRVPLASLKQKFTMGETFHQHERGEITDEAFAEAFCHEMALSLSYEQFAHGWQAVFVGLRPEVIAIMHKLREQGHRVVVLSNTNRLHTHFWPEEYPEVRAAADHIYLSQDLGMRKPEARIYQHVLQKEGFSAADAVFFDDNADNIEGANQLGITSILVKDKATIPDYFAKLLC
modifications: Description of sequence: YihX
substrate hydrolysis (qualitative) [5]: hydrolyzes glucose 1-phosphate (Glc 1-P) but not 6-P-F-Asp
